These are literature values, as cited in publication PMC3981547.

Where two headings read alike, the source gives them in different places.

The term Kd denotes the equilibrium constant for the complex coming apart.

Data set [1] has as its target IL-13Rα1 (Homo sapiens) (UniProt P78552).
The target is the same in data set [2]. The source holds these as a separate data set.
Data set [3] has as its target IL-4Rα ECD (Homo sapiens) (UniProt P24394). The data set is described as follows: ITC. On the technique in general: In ITC the heat of successive injections is recorded.
Data set [4] deals with IL-2Rβ (Homo sapiens) (UniProt P14784).
The target in data set [5] is IL-2Rα (Homo sapiens) (UniProt P01589).
Data set [6] deals with IL-2Rβ/γc (Homo sapiens) (UniProt P14784).
Data set [7] concerns the target γc (Homo sapiens) (UniProt P31785).
Chain of UniProt P31785 (P31785 23-262): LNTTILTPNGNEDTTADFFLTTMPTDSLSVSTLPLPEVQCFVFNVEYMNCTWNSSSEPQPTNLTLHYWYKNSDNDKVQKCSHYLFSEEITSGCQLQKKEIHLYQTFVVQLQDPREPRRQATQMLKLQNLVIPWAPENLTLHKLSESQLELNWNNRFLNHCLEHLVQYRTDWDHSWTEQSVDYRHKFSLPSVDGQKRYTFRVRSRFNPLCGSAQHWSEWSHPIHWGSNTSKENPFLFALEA

Chain of UniProt P78552 (P78552 22-343): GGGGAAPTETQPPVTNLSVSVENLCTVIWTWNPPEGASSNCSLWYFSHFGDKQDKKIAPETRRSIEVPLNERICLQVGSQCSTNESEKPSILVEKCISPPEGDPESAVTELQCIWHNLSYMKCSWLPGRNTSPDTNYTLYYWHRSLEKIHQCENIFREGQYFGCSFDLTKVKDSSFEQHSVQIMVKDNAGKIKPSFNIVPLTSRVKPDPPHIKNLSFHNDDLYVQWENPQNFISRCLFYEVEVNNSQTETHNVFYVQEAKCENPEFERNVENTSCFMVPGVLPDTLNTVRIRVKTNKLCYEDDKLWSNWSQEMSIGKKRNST
Chain of UniProt P24394 (P24394 26-232): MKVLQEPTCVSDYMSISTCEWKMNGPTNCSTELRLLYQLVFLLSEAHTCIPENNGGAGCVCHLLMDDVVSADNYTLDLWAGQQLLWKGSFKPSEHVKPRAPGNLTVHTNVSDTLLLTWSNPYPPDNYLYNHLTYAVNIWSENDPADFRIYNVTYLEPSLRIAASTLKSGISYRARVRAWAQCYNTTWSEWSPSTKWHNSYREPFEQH
Chain of UniProt P01589 (P01589 22-240): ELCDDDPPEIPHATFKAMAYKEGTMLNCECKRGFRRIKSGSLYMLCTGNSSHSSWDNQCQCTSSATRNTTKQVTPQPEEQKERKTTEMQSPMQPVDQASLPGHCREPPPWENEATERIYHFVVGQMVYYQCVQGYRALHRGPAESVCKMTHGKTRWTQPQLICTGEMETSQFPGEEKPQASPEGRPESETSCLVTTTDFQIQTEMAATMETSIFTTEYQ

In the case of IL-4/IL-4Rα (from UniProt P05112), in data set [1], the Kd is 487 nM.

For IL-13 (from UniProt P35225), the Kd in data set [2] is 30 nM. As for IL-4 (from UniProt P05112), in data set [3], the Kd was 1 nM. As for IL-2 (from UniProt P60568), the Kd is 100 nM in data set [4], 10 nM in data set [5], 1 nM in data set [6] and 700 µM in data set [7].
